{"source": "the nanobody polyreactivity screen of Harvey et al. (2022)", "data": [{"experiment": "yeast display, Sf9 membrane polyspecificity reagent, FACS + sequencing; frameworks hold sequencing errors", "summary_of_the_method": "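Genes from sorted yeast were amplified by colony PCR, read by MiSeq 2 × 250 sequencing and filtered on CDR length. These cells carried a synthetic nanobody library in Saccharomyces cerevisiae BJ5465 and were sorted by FACS into low and high (top ~1%) gates on anti-HA and streptavidin fluorescence. Polyreactivity is labelled according to the gate of origin.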", "values": [{"sequence": "PVQLVESGGGLVQAGGSLRLSCAASGRTVWNTMGWDRQSPGNERELVAAISYSGGTTYYADSVKGRFTISRDNAKNTVYLQMNSLKPEDTAVYYCNAVTYGWTAYYKGKRYDYWGQGTQVTVSS", "polyreactivity (PSR sort gate)": "high polyreactivity"}, {"sequence": "PVQLVESGGGLVQAGGSLRLSCAASGSTFDAYDLGWYRQAPGKERELVAAINWSGGITYYADSVKGRFTISRDNAKNTVYLQMNSLKPEDTAVYYCNADASFYSRVNYWGQGTQVTVSS", "polyreactivity (PSR sort gate)": "high polyreactivity"}, {"sequence": "PVQLVESGGGLVQAGGSLRLSCAASGSTSSYYAMGWYRQAPGKERELVAAIRTSGRTYYADSVKGRFTISRDNAKNTVYLQMNSLQPEDTAVYYCNAGYVSPDYDSWGQGTHVTVSS", "polyreactivity (PSR sort gate)": "high polyreactivity"}, {"sequence": "PVQLVESGGGLVQAGGSLSLTCAASGSIFPYYTMRWYRPAPGKERELVATITGNGGSTYADSGKGRFTISRDNAKNTVYLQMNSLKPEDTAVYYCAVYGDSYWGAYYYSDGYWGQGTQVTVSS", "polyreactivity (PSR sort gate)": "low polyreactivity"}, {"sequence": "PVQLVESRGRLVQAGGSLRLSCAASGSIFGYNAMGWYRQAPGKERELVAAISYSGASTYYSDSVKGRFTISRDNAKNTVYLQLNSLKPEDTAVYYCAAGWKRFSGRNHYYWGLGTQVTVSS", "polyreactivity (PSR sort gate)": "high polyreactivity"}, {"sequence": "PVQLVESWGGLDQAGGSLRLICAPSGSIFSVYAMGWYRQAPGKERELVAAISWSGGSTYYADSVKGRFTISRDNAKNTVYLQLNSLKPEDTAVYYCNAKHLPRHRDYWGQGTQVTVSS", "polyreactivity (PSR sort gate)": "low polyreactivity"}, {"sequence": "QAQLQESGGSLVQAGGGLRLSCAASGYISVGSVMGWYRQAPSKERELGASIDQGANTNYADSVKGRFTISRDNAKNNVYLQMNSLKPEDTAVYYCATETTYILNYWGQGTQVTVSS", "polyreactivity (PSR sort gate)": "low polyreactivity"}, {"sequence": "QAQLQESGGSLVQAGGGLRLSCAASGYISVGSVMGWYRQAPSKERELVASIDQGANTNYADSVNGRFTISRDNAKNKESLQMNSLKPEDTAVYYCATETTYIVIYWGQGTQVTVSS", "polyreactivity (PSR sort gate)": "low polyreactivity"}, {"sequence": "QDHIVESGGGLVQAGGSLRLSCAASGSTFKLYAMGWYRQAPGKERELVAAITRSGTRTYYADSVKGRFTISRDNAKNTVYLQMNILKPEDTAVYYCAADGYRISGYDYWGQGTQVTVSS", "polyreactivity (PSR sort gate)": "high polyreactivity"}, {"sequence": "QDHLVESGGGLDQAGGSLRLSCAASGRILGDYAMGWYRQAPGKEREFVAAIDYNGGSTNYADSVKGRFTISRDNAKNTVYLQMNSLKPEDTAVYYCAAPGFPSRNGFGYWGQGTQVTVSS", "polyreactivity (PSR sort gate)": "low polyreactivity"}, {"sequence": "QDHLVESGGGLVQAGGSLRLSCAASGGIFYGYAMGWYRQAPGKERELVAAISTSDASTYYADSVKGRFTFSRDNAKNTVFVQMNSLKPEATAVYYCATDLPDGYDYWGQGTQVTVSS", "polyreactivity (PSR sort gate)": "low polyreactivity"}, {"sequence": "QDHLVESGGGLVQAGGSLRLSCAASGISFWFNAMGWYRQAPGKEREWVGAITSGVDTNYADSVKGRFTISRDNAKNTVYLQMNSLKPEDTAVNYSAAQGGRLKRGSTTSDYWGQGTQVTVSS", "polyreactivity (PSR sort gate)": "low polyreactivity"}, {"sequence": "QDHLVESGGGLVQAGGSLRLSCSASGRTFGTYAMGWYRQAPGKERELVATISSGGSTYYADSVKGRFTISRDNAKNTGYLQMNSLKPEDTAVYYCADYRYFRPGDYWGQGTQVTVSS", "polyreactivity (PSR sort gate)": "low polyreactivity"}, {"sequence": "QDLLVDSGGGLLQAGGSLRLSCAASGSIFYTNTMGWYRHAPGKERALVAAISYSDSTTYYADSVKGRFTISRDNAKNSVYLQMNSLKPEDTAVYYCAAQQFYTYYQTYDYWGQGTQVTVSS", "polyreactivity (PSR sort gate)": "high polyreactivity"}, {"sequence": "QDQHGDSGGGLVQAGGSLRLSCSASGFTITYNTMGWYRQAPGKERELVATITAGDGSTYYADSVKGRFTISRDNAKNTVYFQMNSLKPEDTAVYYCAADAYYYYAGGHYYWGQGTQVTVSS", "polyreactivity (PSR sort gate)": "low polyreactivity"}, {"sequence": "QDQHVESEVGLVQAGGSLRLSCAASGSTVYPYAKGWYRKAPGKERELDAAISSGGSTYYADSVKGRFTISRDNAKNTVYLQMNSLKPEDTAVYYCAADFYYAYYWGQGSQVTVSS", "polyreactivity (PSR sort gate)": "low polyreactivity"}, {"sequence": "QDQHVESGGCLVQAGGSRRLSCAASGSILGAYTMGCYRQAQGKERELVAAITRRGGSTYYADSVKGRFTISRDNAKNTVYLQMNSLKPEDTAVYYWNAEYGVWYDYLVVPYDYWGQGTQVTVSS", "polyreactivity (PSR sort gate)": "low polyreactivity"}, {"sequence": "QDQHVESGGGLVQAGASLRLSCSASGRIFRRYAMGWYRQAPGKERELVAAISWSGGTTYYADSVKGRFTISRDNAKNTVYLQINSLKPEDTAVYYCAKLYSSVTTTYPYGLPRYDSWGQGTQVTLSS", "polyreactivity (PSR sort gate)": "high polyreactivity"}, {"sequence": "QDQHVESGGGLVQAGGSLRISSAASGSIYFYNAMGWYRQAPGQERELVAAITTRGGSTYYADSVKGRFTISRDNAKNTVYLQMNSLKPEDTAVYYCARSSRGKLDYWGQGTQVTVSS", "polyreactivity (PSR sort gate)": "low polyreactivity"}, {"sequence": "QDQHVESGGGLVQAGGSLRLSCAASGFTIRNYAMGWYRQAPGKVMELVPAISKRGGNTYYADSVKGRFSISRDNAKNNVYLQLNSLKPEDTAVYFCAADYQFSQDVWHFGYCGQGTQVTVSS", "polyreactivity (PSR sort gate)": "high polyreactivity"}, {"sequence": "QDQHVESGGGLVQAGGSLRLSCAASGGTFVPYAMGWYRQAPGKERELVARISKRGGTTYYADSVKGRFTISRDIAKNTVYLQMNSLKPEDTAVYYCAAGLPARGYYWGQGTQVTVSS", "polyreactivity (PSR sort gate)": "high polyreactivity"}, {"sequence": "QDQHVESGGGLVQAGGSLRLSCAASGLIFNNYAMGWYRQAPGKERELVAPISRTGTSTYYADSVKGRFTISRDNAKNTVYLQMNSLKPEDTAVFYCNAVIQLFEWGWDDEYDYWGQGTQVTVSS", "polyreactivity (PSR sort gate)": "low polyreactivity"}, {"sequence": "QDQHVESGGGLVQAGGSLRLSCAASGSIFGYYARGWYRQAPGTETELVAAISKSGTRTYYADSVKGRFTISRDNAKNTVYVQMNSLKPEETAVYYCAARYYSRTTAMDYWGQGTQVTVSS", "polyreactivity (PSR sort gate)": "high polyreactivity"}, {"sequence": "QDQHVESGGGLVQAGGSLRLSCAASGSTFAFYAMGWYRQAPGKERELVAAINYGGTSTYYADSVKGRFTISRDNAKNTVYLQMNSLKPEDTAVYYCAARRPTSPRRYESWGQGTQVTVSS", "polyreactivity (PSR sort gate)": "high polyreactivity"}, {"sequence": "QDQHVESGGGLVQAGGSLRLSCAASGSTLLYYVMGWYRQAPGKERELVAAITGTGGRTYYADSVKGRFTISRDNAKNTVYLQMNSLKPEDTAVYYCAREWRTRIYYYWGQGTQVTVSS", "polyreactivity (PSR sort gate)": "low polyreactivity"}, {"sequence": "QDQHVESGGGLVQAGGSLRLSCAASGTIFCYYAMGWYRQAPGKERGLVASISWNGTSTYYADSVKGRFTISRDNSKNTVYLQMNCLNPEDTAVYYCNVRFNYRGTYDYWGQGTQVTVSS", "polyreactivity (PSR sort gate)": "low polyreactivity"}, {"sequence": "QDQHVESGGGLVQAGGSLRLSCAASGTTFSLYMGWNRQSPGKERKLVAAITYSGGRTYYADSVKGRFTISRDNAKNTVYLQMNSLKPEDTAVYYCGTVFNDLTVYEYWSRFDYWGQGTQVTVSS", "polyreactivity (PSR sort gate)": "low polyreactivity"}, {"sequence": "QDQHVESGGGLVQAGGSLRLSCDASGRTFTRYAMGWYRQAPGKERELVAAISRGGSTYYADSVKRRFTISRDNAKNTVYLQMNSLKPEDTAVYYCAARYGTYTAGNYWGQGTQVTVSS", "polyreactivity (PSR sort gate)": "high polyreactivity"}, {"sequence": "QDQHVESGGGLVQAGGSLRLSFADSGITFDYYAMGWYRQAPGKERELVAAISVSGGDTYYADSVKGRFTISRDNAKNTVYLQMNRLKPQDTSVYYCAAEEVSPRWYDYWGQGTQVTVSS", "polyreactivity (PSR sort gate)": "low polyreactivity"}, {"sequence": "QDQHVESGRGLVQAGGSLRLSCSASGTIFAYVMGWNIQAPRKERQLVAAISRSGGSTYYADSVKGRFTISRDNAKNTVYLQMNSLKPEDTAVFYCAAVGSTVFGTRYYYWGEGTQVTVSS", "polyreactivity (PSR sort gate)": "high polyreactivity"}, {"sequence": "QDQHVESVGGLVQAGGSLRFSCAASGSTFTRYAMGWYRQAPGKERELVAAIDGGGGSTSYADSVKGRFTISRDNAKNTVYLQMNSLKPEDTAVYYCAAPLDTSSSIFDYWGQGTQVTVSS", "polyreactivity (PSR sort gate)": "low polyreactivity"}, {"sequence": "QDQIVESGGGLVQAGGSLRLSCASSGFTFYVYAMGWYRQAPCKERELVAAISWSGGRTYYAESVKGRFTISRDNAKNTVYLQMNSLKPEDTAVYYCAAYRYYPSYDYWGQGTQVTVSS", "polyreactivity (PSR sort gate)": "high polyreactivity"}, {"sequence": "QDQIVYSGGGLVQAGGSLRLSCAASVRTFYRYDLGWYIQAPGKESELVAAISYSGASTYYADSVKGRFTISRDIAKNTVYLQMNSLKPEDTAVYYCAARYHGRDPRQIRYGYWGQGTQVTVSS", "polyreactivity (PSR sort gate)": "high polyreactivity"}, {"sequence": "QDQLEESGGGIVQAGGSLRLSCAASGSTFQYYAMGWYRQAPGKERELFAAISASVDTKFYADSVKGRFTISRDNAKNTVYLQMNSLKPEDTAFYYCATDWPHWRKVYWFDYWGQGTQVTVSS", "polyreactivity (PSR sort gate)": "low polyreactivity"}, {"sequence": "QDQLEESGGGLVQAGASLRLSCAAYGSIFSGYAMGRYRQATGKERELVAAITWRAASTYYADSVKGRFTISRDNAKTTVYLQMNSLKPEDTEVYYCAKEGWPKPAFYYWGLGTQVTVSS", "polyreactivity (PSR sort gate)": "low polyreactivity"}, {"sequence": "QDQLEESGGGLVQEGGSLRLSCAASGFIFPRYAMGWYRQAPGKERELVAAISRSGGITRYADSVKGRFSISRDNAKNTVYLQMISLKPEDTAVYYCAAARSYWAKYYYWGQGTQVTVSS", "polyreactivity (PSR sort gate)": "high polyreactivity"}, {"sequence": "QDQLGDSGGGLVQAGGSLRLSCAASGLTFYRYAMGWYRQAPGKERELVAAIRWNSGSTYYADSVKGRFTISRVNAKNTVYLQMNSLKPEDTAVYYCAATAIYPSAWRMAYWGQGTQVTVSS", "polyreactivity (PSR sort gate)": "high polyreactivity"}, {"sequence": "QDQLGESGGGLVQAGGSLRLICAASGRIFVSNTMGCYRQAPGKERELVATISRRGGITYYADSVKGRFTISRDNAKNTVYLQMNSLKPEDTAVYYCAAESYSFWLYDYCGQGTQVTVSS", "polyreactivity (PSR sort gate)": "high polyreactivity"}, {"sequence": "QDQLGESGGGLVQAGGSLRLSCAASGSIFETYVMGWYRQAPGKERELVAAINSGGSTNYADSVKGRFTISRDNAKNTVYLQMNSLKAEDTAVYYCNADWFTPAQPWYRYFIRYDYWGQGTQVTVSS", "polyreactivity (PSR sort gate)": "low polyreactivity"}, {"sequence": "QDQLLESGAGLVQAGGSLRLSCAASGRIFDYNVMGWYRQAPGKERELVADITSSGGSTYYADSVKGRFTISRDNAKNTVYLQMNSLKPEDTAVYYCYISYFTIYDDFYYWGQGTQVTVSS", "polyreactivity (PSR sort gate)": "low polyreactivity"}, {"sequence": "QDQLLESGGGLVQAGGSLRLSCAASGSILQDYAMGWYRQAPGKERELVAAISNSGDSTYYADSLKGRFTISRENAKTTVYLQLNSLKPEDTAVYYCNAAVYPYAMYSGGLDYDYWGHGTQVTVSS", "polyreactivity (PSR sort gate)": "low polyreactivity"}, {"sequence": "QDQLVDSCGGLVQARGSLRLSCAASGSIFGDYAMGWYRQAPGKEWELVAAISDTDSTNDADSVKGRFTISRDNAKNTVYLQMNSLKREDTAVYSCNGDTWGYLLGYYYYKFAYCGQGTQVTVSS", "polyreactivity (PSR sort gate)": "low polyreactivity"}, {"sequence": "QDQLVDSGGGLLQAGGSLRLSCAASGRIFVWNTMGWYRQAPGKERELVAAITSGGSTTFADSVKGRFTISRDNAKYTVYLQMNSLKPEDTAVYYCNTELDLYHPGDDYWGQGTQVTVSS", "polyreactivity (PSR sort gate)": "high polyreactivity"}]}]}
